# Assay: yeast display, Sf9 membrane polyspecificity reagent, FACS + sequencing; frameworks hold sequencing errors
# Method in brief: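 Using colony PCR, genes from sorted yeast display clones were amplified, then sequenced on MiSeq at 2 × 250 and filtered by CDR length. The clones had been stained with 10% biotinylated, detergent-solubilized Sf9 membrane reagent for 1 hour at 4 °C and sorted by FACS into low and high (top ~1%) gates on anti-HA and streptavidin fluorescence. Polyreactivity labels come from the gate of origin.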
row,Sequence,polyreactivity (PSR sort gate)
1,QVQLVDSGGGLVQAGGSLRLSCAASGSIIYDYPMGWYRQAPGKEREFVASIDWRGDSTYYADSVKGRFTNSRDNAKNTVYLQMNRLKPEDTAVYYCAADRSYQYYFYEDYGYDYWGQGTQVTVSS,low polyreactivity
2,QVQLVDSGGGLVQAGGSLRLSCAASGSIYGYYAMGWYRQAPGKELVLVAVITSGATTNYADSLKGRFSISRDNAKNTGYLQMNSLKPEDTAVYYCAARPQVKRGRYGYWGQGTQVTVSS,low polyreactivity
3,QVQLVDSGGGLVQAGGSLRLSCAASGSSFYISAMGCYRQAPGKERELVAAITNAGSTKYADSVKGRFTISRDNAKNTVYLQMNSLKPEDTAVYYCAAVTFSYDGYDYWGQGTQVTVSS,low polyreactivity
4,QVQLVDSGGGLVQAGGSLRLSCAASGSTFPSNAMGWYRQAPGKERELVASIDRGGSTNNADSVKGRFTISRDNAKNTVYLQMNRLKPEDTAVYYCAAKRWPYWDISVYYWGYDYWGQGTQVTVSS,low polyreactivity
5,QVQLVDSGGGLVQAGGSLRLSCAASGSTFRYNVMGWYRQAPGKEREMVATISYSGGSTNYADSVKGRFTISRDNAKNTVYLPMNSLKPEDTAVYYCAARYLYPFYRYWWYDYWGQGTQVTVSS,high polyreactivity
6,QVQLVDSGGGLVQAGGSLRLSCAASGSTFRYYAMGWYRQAPGKEREFVAAITRSGGSTYYADSVKGRFTISRDNAKNTVYLQMNSLKPEETAVYYCNARPSASSRKKLERYYWGQGTQVTVSS,low polyreactivity
7,QVQLVDSGGGLVQAGGSLRLSCAASGSTFTYYAMGWYRPAPGKERELVASITTSGGDTNYADSVKGRFTISRDNAKKTVYLQRNSQKPEDTPLYYCNTTTDQHYGYCAAADADRKYDYWGQGTQVTVSS,low polyreactivity
8,QVQLVDSGGGLVQAGGSLRLSCAASGSTIVYYAKGWYRHAPGKERELVAVISDDGGTYYADSVKGRFTISRDNAKNTVYFQMNSLKPEDTAFYYCAKDYYGGAYYWYNDRSGDYWGQGTQVTVSS,low polyreactivity
9,QVQLVDSGGGLVQAGGSLRLSCAASGSTLVYKDMGLYRQAPGKEREFVAAIRSNDGSTYYADSVKGRFTISRDNAKNTVYLQMNSLKPEDTAVYYCAKGRYAYSIWDDYWGQGTQVTVSS,low polyreactivity
10,QVQLVDSGGGLVQAGGSLRLSCAASGSTSQKNAMGWYRQAPGKERELVAAISSGGSTYYADSVKGRFTISRDNAKNNVYLQLNSLKPEDTAVYNCAAKDLRGLGYWGQGTQVTVSS,high polyreactivity
11,QVQLVDSGGGLVQAGGSLRLSCAASGYIDGTYAMGWYRQAPRKERDLVASISSSGGSTYYADSVNGRFTISRDNAKNTVYLQMNSLKPEDTAVYYCNAERKIIAYLWWYDYWGQGTQVTVSA,low polyreactivity
12,QVQLVDSGGGLVQAGGSLRLSCAASRNAMGWYRQAPGKERELVGAISFRGGSTYYADSVKGRFTISRDNAKNTVYLQMNSLKPEDTAVYYCAKVQHHDYEGRGFPDAADGYWGQGTQVTVSS,low polyreactivity
13,QVQLVDSGGGLVQAGGSLRLSCAASVRIFYEYAMGWYRKAPGKERQFVASISRTDGGTYYADSVKGRFTISRDNAKNTVYLQMNSLKPEENAVYYCATRAYYNTEVYYWGQGTQVTVSS,high polyreactivity
14,QVQLVDSGGGLVQAGGSLRLSCAAYGSTFGPYAMGWYRQAPGKERELVAAIRVSGGSTYYADSVKGRFTISRDNAKNTVYLQMNSLKPEDTAVYYCIRDVMTFNYDYWGQGTQVTVSS,low polyreactivity
15,QVQLVDSGGGLVQAGGSLRLSCDASGSTFLYYAMGWYRQAPGKERELVARITSRFGRTYYADSVKGRFTISRDNAKNTVYLQMNSLKPEDTAVYYCAAYPDYSYYYWGHGTQVTVSS,high polyreactivity
16,QVQLVDSGGGLVQAGGSLRLSCDATGRIFRLYAMGWYRQAPGKERELVAAISWRGSSTNYADSVKGRFTISRDNAKNTVYLQRNSLKPEDTAVYYCAAPGRGGYYYWGQGTQVTVSS,high polyreactivity
17,QVQLVDSGGGLVQAGGSLRLSCPASGRIFGRNAMAWYRQAPGKERELVAAISSSGGTYYADSVKGRFTISRDNAKNTVYLQMNSLKPEDTAVYYCAADPLYYWWRGDYWGQGTQVTVSS,high polyreactivity
18,QVQLVDSGGGLVQAGGSLRLSCSASGFTFKYYAMGWYRQAPGKERELVASINWSGGRTSYADSVKGRFTISRDNAKNTVYLQMNSQKPEDTAVYYCARTPAGRGEYWGQGTQVTVSS,low polyreactivity
19,QVQLVDSGGGLVQAGGSLRLSFAASGITFFYYAMGWYRQAPGKERELVAAISTSGGRTYYADSVKGRFTISRDNAKNTVYLQMNSLKPEDTAVYYSAAQSGWLRYYYWGQGTQVTVSS,high polyreactivity
20,QVQLVDSGGGLVQAGGSLRLSSAASGRTFDYYAMGWYRQAPGKERELVAAITKDGGSTYYADSVKGRFTISRDNAKNTVFLQMNSLKPEDTAVYYCAADGPPLYYDPIHYDYWGQGTQVTVSS,low polyreactivity
21,QVQLVDSGGGLVQAGGSLRLSWAASGITFYTYTMGWYRQAPGKERELVAAISRRGGGTYYADSVKGRFTISRDNGKNTVYFQMNILKTEVTAVYYCAKDWYGRYYYWGQGTEVTVSS,high polyreactivity

row,Sequence,polyreactivity (PSR sort gate)
1,QVQLVDSGGGLVQAGGSLRLTCAACGSIFVNNSMGWSRQATGKQRELVAAISSRSSRTFYADSVKGRFTISRDNEKNTVFLQMNSLKPEDNAVYYCAVKKRAPDGDYWGLGTQVTVSS,high polyreactivity
2,QVQLVDSGGGLVQAGGSLRLTCAASGSTIYWYAMGWYRQAPGKERELVAAISSSGSTKYADSVKGRFTISRDNAKNNVYLQINSLKPEDTAVYYCAADVEYDRDVPQQVYVSDDYWGQGTKVTVSS,low polyreactivity
3,QVQLVDSGGGLVQAGGSLSLSCAASGRTFNWYTMGWYRQAPGKEMELVARINGRGGSTYYADSVKGRFTISRDNAKNTVYLQMNSLKPEDTAVYYCNKPHRWPQAGYGYWGQGTQVTVSS,high polyreactivity
4,QVQLVDSGGGLVQAGGSLSLSCAASGSIFNVYGMGWYRQAPGKERELVARINSRGGITYYADSVKGRFTISRDNAKNTVYLQMNSLKPEDTAVYYCATDTQDLQGYSWFDYWGQGTQVTVSS,high polyreactivity
5,QVQLVDSGGGLVQAGGSLSLSCAASGSTFTDYDMGWYRQAPGKERELVAAITSGGSTNYADSVKGRFTISRDNAKKTVYLQMNSLNPEATAVYYCAAADADRKYDYWGQGTQVTVSS,low polyreactivity
6,QVQLVDSGGGLVQAGGSLSLSCAASGSTYAYYAMGWYRQAPGKVRELVAGITWTGGSTYYADSVKGRFTISRDNAKNTVYLQMNSLKPEDTAVYYCAVTYPYGYEYDHWGQGTQVTVSS,low polyreactivity
7,QVQLVDSGGGLVQAGGSLSLSCAASGYTMGYYTMGWYIEAPGKERELVATISRRGGSTSYADSVKGRFTISRDNAKNTVYLQMNSLKPEDTAVYYCNAQTSGRVGSQYYSYDGSWGQCTQVTVSS,high polyreactivity
8,QVQLVDSGGGLVQAGGSLSLSCGASGIIFVSNAMGWYRQAPGKERELVATINWSDDSTYYADSVKGRFTISRDNAKNTVYLQMNSLKPEDTAVYYCYWRQGTQVTVSS,low polyreactivity
9,QVQLVDSGGGLVQAGGTHRLSCAASGFTFRRNAMGWYRQAPGKERELVAAITYNGGTSYYADSVKGRFSISRDNAKNTVYLQMNSLKPEETAVYYCAAVDSYSPYVSHDNWGQGTKVTVSS,low polyreactivity
10,QVQLVDSGGGLVQPGGSLRLRCAASGGIFLQNAMGWYRQAPGTERELVAAISWSAGSTYYADSVKGRFTISRDNAKNTVYLDMNCLKPEDTAVYYCAAAGSNFTVWYGYYYWGQGTQVTVSS,low polyreactivity
11,QVQLVDSGGGSVQAGGSLRLSCAASGRTFPYYAMGWYRQAPGKERELVAAITIGNTNYADSVKGRFTISRDNAKNTVYLQMNSLKPEDTAVYYCNASHVSHYRARDYWGQGTQVTVSS,low polyreactivity
12,QVQLVDSGGRLLQAGGSLRLSCAASGRTFYYYAKGWYRQAPGKERELVASITSDGDTNYADSVKGRFTISGDNAKNTGYLQMNSLKPEDTAVYYCAAEWQTQGYEYWGQGTQVTVSS,high polyreactivity
13,QVQLVDSGVGLVQAGGSLRLSCAASGRIFDYYAMGWYRQAPGKERELVAAITSGGTTTYYADSVKGRFTISRDNAKNTVYLQMNSLKPEDTAVYYCAASFFGDGYIDLWYKFDYWGQGTQVTVSS,low polyreactivity
14,QVQLVDSVGGLVQAGGSLRLSCAASGFTFWYYAMGWYRQAPGKERELVAAISSGGSTYYADSVKGRFTISRDNAKNTVYLQMNSLKPEDTAVYYCAARIGARGRGGKDRVYYWGQGTQVTVSS,high polyreactivity
15,QVQLVDSVGRLVQAGGSLRLSCAASGSTFVGYAMGWYRHAPGKEREMDADIDSIGGSTYYADSVKGRFTISRDNAKNTVYLQMNILKPEDTAVYYCAARRYDTALVLYDYWGQGTQVTVSS,low polyreactivity
16,QVQLVDSVGVLVQAGGSLRLSCAASGSIFYRNVMGWYRPAPGKERELVATISRGGTTNYADSVKGRFTISRDNAKNTVYLQMNSLKPEDTAVFYCAAPIGDVYVGIGYDSWGQGTQVTVSS,low polyreactivity
17,QVQLVDTGGGLVQAGGSLRLSCAASGLTFQQYAMGWYRQAPRKERELVAAITSDGASTNYADSVKGRFTNSRDNAKNTVYLQMNSLKPEDCAVYYCAAGRRSRQYRYVYWGQGTQVTVSS,high polyreactivity
18,QVQLVEAGGGLVLAGGSLRLSCAASGIIFVSYAMGWSRQAPGKERELVASISWSGGRTYYADSVKARFTISRDNAKNTVYLQMNSLKPEDTAVYFCAAAYRTRSGVRRYPWFNYWGQGTQVTVSS,high polyreactivity
19,QVQLVEAGGGLVQAGGSLRLSCAASGITFGDNAMGCYRQAPGKERELVAAITLSDVDTYADSVKGRFTISRDNAKNTVYLQMNSMKPEDTAVYYCAADYDFFSLYLYDYCGQGTQVTVSS,low polyreactivity
20,QVQLVEAGGGLVQAGGSLRLSCAASGNTLYGNAMGWYLQAPGKERELVAAISWSGGSTSYADSVKGRFTISRDNAENTVYLQMNSLKPEDTAVYYCATQGFYKDYSRYDYWGQGTQVTVSS,low polyreactivity

# From the nanobody polyreactivity screen of Harvey et al. (2022)
